Residue numbers refer to the chain shown, from its start.

Data on 54 molecules can be found in patent US20150147274A1 (CANCER RESEARCH TECHNOLOGY, published 2015).

The test concerns the target T1, MET928 (cMET protein derived from construct 25-928) (human, UniProt P08581 25-928).
T1 construct: MET ectodomain, residues 1-24 are the leader; produced in Lec 8 cells; background text says the ectodomain is furin-cleaved into alpha (25-307) and beta chains; biotinylated form used in selections; also called MET928 extracellular domain; Met extracellular domain
As to the kind of experiment: ELISA, soluble scFv. (In general: An ELISA detects its analyte on a solid surface through an enzyme-linked reagent.)

T1 sequence (P08581 25-928): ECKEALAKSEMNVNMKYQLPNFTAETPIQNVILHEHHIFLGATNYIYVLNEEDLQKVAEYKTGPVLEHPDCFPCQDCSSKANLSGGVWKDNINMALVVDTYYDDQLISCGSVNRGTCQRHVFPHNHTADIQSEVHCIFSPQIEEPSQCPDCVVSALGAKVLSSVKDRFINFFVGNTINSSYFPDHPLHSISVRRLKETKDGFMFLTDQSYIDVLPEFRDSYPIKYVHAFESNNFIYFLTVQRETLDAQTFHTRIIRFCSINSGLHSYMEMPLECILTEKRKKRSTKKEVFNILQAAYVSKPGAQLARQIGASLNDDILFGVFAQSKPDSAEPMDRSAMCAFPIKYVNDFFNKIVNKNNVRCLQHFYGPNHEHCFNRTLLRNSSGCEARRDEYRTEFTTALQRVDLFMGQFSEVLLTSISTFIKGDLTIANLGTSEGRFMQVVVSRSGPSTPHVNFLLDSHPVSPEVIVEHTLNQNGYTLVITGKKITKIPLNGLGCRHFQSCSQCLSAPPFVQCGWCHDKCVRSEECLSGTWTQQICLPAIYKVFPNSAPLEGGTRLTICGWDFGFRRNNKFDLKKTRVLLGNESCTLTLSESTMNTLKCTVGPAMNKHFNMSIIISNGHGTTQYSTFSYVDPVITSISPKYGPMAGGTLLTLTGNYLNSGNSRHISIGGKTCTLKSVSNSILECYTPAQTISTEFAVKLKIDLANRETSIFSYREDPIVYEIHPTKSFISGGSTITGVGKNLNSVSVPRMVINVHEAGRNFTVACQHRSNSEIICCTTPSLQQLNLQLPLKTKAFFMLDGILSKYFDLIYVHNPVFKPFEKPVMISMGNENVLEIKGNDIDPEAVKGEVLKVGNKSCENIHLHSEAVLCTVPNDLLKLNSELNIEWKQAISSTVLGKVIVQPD

B1: 110_B3 (scFv)
scFv: QMQLVQSGAEVKKPGAPVKVSCKVSGYTFTDYYMHWVQQAPGKGLEWMGLVDPEDGETIYAEKFQGRVTITADTSTDTAYMELSSLRSEDTAVYYCATDMELNYYGMDVWGQGTLVTVSSLEGGGGSGGGGSGGGASDIQMTQSPSSLSASVGDRVTITCQASQDISNYLNWYQQKPGRAPKVLIYDASNLETGVPSRFSGSGSGTEFTLTISNLRPDDFATYYCQQGDSFPLTFGGGTKVEIK
notes: not shown: 6xHis/tri-FLAG tags
Turning to B1, the binding result is reported as “binds”.

B2: 111_C3 (scFv)
scFv: B1 scFv with M100A, E101T, L102T, N103P, Y105W, D108Q, V109G
notes: as for B1
In the case of B2, the binding result is recorded as “binds”.

B3: 112_H1 (scFv)
scFv: B1 scFv with M100A, E101T, L102T, N103P, Y105W, M107A, D108A
notes: as for B1
Regarding B3, the binding result is on record as “binds”.

B4: 112_G7 (scFv)
scFv: B1 scFv with M100A, E101T, L102T, N103P, Y105W, G106F, M107P, D108Q, V109T
notes: as for B1
B4: the binding result is “binds”.

B5: 111_D11 (scFv)
scFv: B1 scFv with M100A, E101T, L102T, N103P, Y105W, D108M, V109R
notes: as for B1
Consider B5, for which the binding result is “binds”.

B6: 111_E8 (scFv)
scFv: B1 scFv with M100A, E101T, L102T, N103P, Y105W, G106F, M107P, D108Y, V109R
notes: as for B1
As to B6, the binding result is “binds”.

B7: 111_E6 (scFv)
scFv: B1 scFv with M100A, E101T, L102T, N103P, Y105W, D108A
notes: as for B1
Consider B7, for which the binding result is on record as “binds”.

B8: 111_C5 (scFv)
scFv: B1 scFv with M100A, E101T, L102T, N103P, Y105W, G106F, M107P, D108K
notes: as for B1
With B8, the binding result is “binds”.

B9: 111_D8 (scFv)
scFv: B1 scFv with M100A, E101T, L102T, N103P, Y105W, D108S, V109W
notes: as for B1
Take B9: the binding result was “binds”.

B10: 110_B9 (scFv)
scFv: B1 scFv with M100A, E101T, L102T, N103P, Y105W, G106S, M107P, D108I, V109W
notes: as for B1
Take B10: the binding result is listed as “binds”.

B11: 111_D1 (scFv)
scFv: B1 scFv with M100A, E101T, L102T, N103P, Y105W, V109E
notes: as for B1
Regarding B11, the binding result was “binds”.

B12: 112_H10 (scFv)
scFv: B1 scFv with M100A, E101T, L102T, N103P, Y105W, M107I, D108R, V109K
notes: as for B1
B12: the binding result is listed as “binds”.

B13: 111_C1 (scFv)
scFv: B1 scFv with M100A, E101T, L102T, N103P, Y105W, G106S, M107P, D108W, V109A
notes: as for B1
On to B13, for which the binding result was “binds”.

B14: 112_G4 (scFv)
scFv: B1 scFv with M100A, E101T, L102T, N103P, Y105W, M107A, D108Q, V109S
notes: as for B1
Turning to B14, the binding result was “binds”.

B15: 111_E11 (scFv)
scFv: B1 scFv with M100A, E101T, L102T, N103P, Y105W, D108R, V109E
notes: as for B1
Consider B15, for which the binding result is “binds”.

B16: 112_F12 (scFv)
scFv: B1 scFv with M100A, E101T, L102T, N103P, Y105W, D108Q, V109W
notes: as for B1
As for B16, the binding result is listed as “binds”.

B17: 111_E12 (scFv)
scFv: B1 scFv with M100A, E101T, L102T, N103P, Y105W, G106S, M107P, D108W
notes: as for B1
With B17, the binding result is recorded as “binds”.

B18: 112_F11 (scFv)
scFv: B1 scFv with M100A, E101T, L102T, N103P, Y105W, D108M, V109Q
notes: as for B1
Turning to B18, the binding result is listed as “binds”.

B19: 110_B6 (scFv)
scFv: B1 scFv with M100T, E101D, N103K
notes: as for B1
In the case of B19, the binding result was “binds”.

B20: 111_D5 (scFv)
scFv: B1 scFv with M100A, E101T, L102T, N103P, Y105W, G106F, M107P, D108A
notes: as for B1
Turning to B20, the binding result is reported as “binds”.

B21: 112_G5 (scFv)
scFv: B1 scFv with M100A, E101T, L102T, N103P, Y105W, D108R, V109S
notes: as for B1
With B21, the binding result is given as “binds”.

B22: 111_C9 (scFv)
scFv: B1 scFv with M100A, E101T, L102T, N103P, Y105W, D108M, V109A
notes: as for B1
Turning to B22, the binding result was “binds”.

B23: 112_H11 (scFv)
scFv: B1 scFv with M100A, E101T, L102T, N103P, Y105W, G106F, M107P, D108Q
notes: as for B1
As to B23, the binding result is recorded as “binds”.

B24: 110_B7 (scFv)
scFv: B1 scFv with M100G, E101L, L102W, N103M
notes: as for B1
On to B24, for which the binding result is on record as “binds”.

B25: 111_C6 (scFv)
scFv: B1 scFv with M100A, E101T, L102T, N103P, Y105W, G106F, M107P, D108Q, V109H
notes: as for B1
Consider B25, for which the binding result is “binds”.

B26: 111_D2 (scFv)
scFv: B1 scFv with M100A, E101T, L102T, N103P, Y105W, G106F, M107P, D108W, V109I
notes: as for B1
Take B26: the binding result was “binds”.

B27: 111_E10 (scFv)
scFv: B1 scFv with M100A, E101T, L102T, N103P, Y105W, G106Y, M107P, D108Y, V109A
notes: as for B1
On to B27, for which the binding result is listed as “binds”.

B28: 111_B12 (scFv)
scFv: B1 scFv with M100A, E101T, L102T, N103P, Y105W, M107A, D108Q, V109A
notes: as for B1
For B28, the binding result is “binds”.

B29: 112_G3 (scFv)
scFv: B1 scFv with M100A, E101T, L102T, N103P, Y105W, D108S, V109A
notes: as for B1
In the case of B29, the binding result is “binds”.

B30: 112_G11 (scFv)
scFv: B1 scFv with M100A, E101T, L102T, N103P, Y105W, G106F, M107P, D108Y, V109T
notes: as for B1
Turning to B30, the binding result is given as “binds”.

B31: 112_H4 (scFv)
scFv: B1 scFv with M100A, E101T, L102T, N103P, Y105W, D108W, V109K
notes: as for B1
With B31, the binding result is given as “binds”.

B32: 111_E7 (scFv)
scFv: B1 scFv with M100A, E101T, L102T, N103P, Y105W, D108M, V109M
notes: as for B1
On to B32, for which the binding result is given as “binds”.

B33: 111_D4 (scFv)
scFv: B1 scFv with M100A, E101T, L102T, N103P, Y105W, D108W
notes: as for B1
As for B33, the binding result is given as “binds”.

B34: 112_H7 (scFv)
scFv: B1 scFv with M100A, E101T, L102T, N103P, Y105W, M107V, D108Q, V109S
notes: as for B1
On to B34, for which the binding result is given as “binds”.

B35: 111_C10 (scFv)
scFv: B1 scFv with M100A, E101T, L102T, N103P, Y105W, G106T, M107P, D108E, V109I
notes: as for B1
For B35, the binding result was “binds”.

B36: 112_F8 (scFv)
scFv: B1 scFv with M100A, E101T, L102T, N103P, Y105W, G106T, M107P, D108F, V109L
notes: as for B1
On to B36, for which the binding result is on record as “binds”.

B37: 112_F1 (scFv)
scFv: B1 scFv with M100A, E101T, L102T, N103P, Y105W, D108A, V109R
notes: as for B1
In the case of B37, the binding result is listed as “binds”.

B38: 111_D7 (scFv)
scFv: B1 scFv with M100A, E101T, L102T, N103P, Y105W, G106F, M107P, D108Y, V109A
notes: as for B1
For B38, the binding result is listed as “binds”.

B39: 112_H12 (scFv)
scFv: B1 scFv with M100A, E101T, L102T, N103P, Y105W, G106F, M107P, D108Y, V109K
notes: as for B1
Regarding B39, the binding result is “binds”.

B40: 112_H9 (scFv)
scFv: B1 scFv with M100A, E101T, L102T, N103P, Y105W, G106F, M107P, D108Y, V109S
notes: as for B1
Take B40: the binding result is “binds”.

B41: 110_B8 (scFv)
scFv: B1 scFv with M100A, E101T, L102T, N103P, Y105W, D108M, V109L
notes: as for B1
On to B41, for which the binding result was “binds”.

B42: 112_F4 (scFv)
scFv: B1 scFv with M100A, E101T, L102T, N103P, Y105W, D108A, V109D
notes: as for B1
As to B42, the binding result is “binds”.

B43: 112_G6 (scFv)
scFv: B1 scFv with M100A, E101T, L102T, N103P, Y105W, G106F, M107P, D108F
notes: as for B1
Turning to B43, the binding result was “binds”.

B44: 112_H8 (scFv)
scFv: B1 scFv with M100A, E101T, L102T, N103P, Y105W, G106L, M107P, D108L, V109Y
notes: as for B1
As to B44, the binding result is given as “binds”.

B45: 112_H6 (scFv)
scFv: B1 scFv with M100A, E101T, L102T, N103P, Y105W, D108M, V109E
notes: as for B1
As to B45, the binding result is on record as “binds”.

B46: 111_E5 (scFv)
scFv: B1 scFv with M100A, E101T, L102T, N103P, Y105W, D108C, V109E
notes: as for B1
With B46, the binding result is given as “binds”.

B47: 111_C12 (scFv)
scFv: B1 scFv with M100A, E101T, L102T, N103P, Y105W, G106F, M107P, D108R, V109Y
notes: as for B1
On to B47, for which the binding result is “binds”.

B48: 112_H5 (scFv)
scFv: B1 scFv with M100A, E101T, L102T, N103P, Y105W, D108Q, V109A
notes: as for B1
With B48, the binding result is reported as “binds”.

B49: 111_C8 (scFv)
scFv: B1 scFv with M100A, E101T, L102T, N103P, Y105W, G106F, M107P, D108V
notes: as for B1
With B49, the binding result is “binds”.

B50: 111_E3 (scFv)
scFv: B1 scFv with M100A, E101T, L102T, N103P, Y105W, G106F, M107P, D108V, V109E
notes: as for B1
For B50, the binding result is reported as “binds”.

B51: 111_E4 (scFv)
scFv: B1 scFv with M100A, E101T, L102T, N103P, Y105W, M107I, D108E
notes: as for B1
As for B51, the binding result is given as “binds”.

B52: 112_G9 (scFv)
scFv: B1 scFv with M100A, E101T, L102T, N103P, Y105W, D108Q, V109R
notes: as for B1
Take B52: the binding result is reported as “binds”.

B53: 111_D3 (scFv)
scFv: B1 scFv with M100A, E101T, L102T, N103P, Y105W, M107A, D108A, V109L
notes: as for B1
As for B53, the binding result is recorded as “binds”.

B54: 110_B5 (scFv)
scFv: B1 scFv with M100A, E101T, L102T, N103P, Y105W, D108M, V109S
notes: as for B1
Regarding B54, the binding result was “binds”.
